{"source": "the supplement of paper PMC9170038", "system": "MS2 coat protein", "assay": "apparent KD of MS2 coat protein; higher = weaker reporter binding", "settings": "Eterna round: R107", "how_it_was_run": "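The designed RNA switches were transcribed on-chip from Illumina sequencing clusters. In 100 mM Tris-HCl pH 7.5, 80 mM KCl and 4 mM MgCl2, without or with constant ligand, they were titrated with SNAP-549-labelled MS2 coat protein from 0.7 or 1.5 nM to 3 µM in twofold steps. Apparent KD is the per-design median of normalised cluster binding-curve fits.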", "key": {"[1]": {"settings": "input ligand: theophylline 20 uM"}, "[2]": {"settings": "input ligand: tryptophan 2.4 mM"}, "[3]": {"settings": "input ligand: theophylline 2 mM"}}, "data": [{"sequence": "AGCUCAGAGAGUGAUACCAGACUACAUGAGGAUCACCCAUGUUACUUUUAAAUAUCAUGAGUCCCUUGGCAGCACAAGAAGAGCA [JR_ExcTheophyB_Sub016]", "values": [{"measurement": "apparent KD of MS2 coat protein", "setting": "input ligand: arginine 13.2 mM", "value": 40.1, "unit": "nM"}, {"measurement": "apparent KD of MS2 coat protein", "setting": "[1]", "value": 117, "unit": "nM"}, {"measurement": "apparent KD of MS2 coat protein", "setting": "[2]", "value": 73.2, "unit": "nM"}]}, {"sequence": "AGCUCGCAUCCUCUAGCGUCAAAGACGCGUCGAGGACCGGUACGGCCGCCACUCGACUUGAGGAUCACCCAAGUCUAAGCGAGCA [TrypAX 11 #SwitchBubble #AlternativeMS2 #MS2Late #CuTurnoff]", "values": [{"measurement": "apparent KD of MS2 coat protein", "setting": "input ligand: arginine 13.2 mM", "value": 54.8, "unit": "nM"}, {"measurement": "apparent KD of MS2 coat protein", "setting": "input ligand: none", "value": 92.6, "unit": "nM"}, {"measurement": "apparent KD of MS2 coat protein", "setting": "[1]", "value": 91.1, "unit": "nM"}, {"measurement": "apparent KD of MS2 coat protein", "setting": "[3]", "value": 215, "unit": "nM"}, {"measurement": "apparent KD of MS2 coat protein", "setting": "[2]", "value": 488, "unit": "nM"}]}, {"sequence": "AGGAAAACAUGAGCAAAGCUCAUGUGCGAAGGAGCGGCGGAAACGCCAGGUAGGUCGCGCACAUGAGCAUCAGCCAUGUGUAUCA [Omei Arginine B SS A v4]", "values": [{"measurement": "apparent KD of MS2 coat protein", "setting": "input ligand: arginine 13.2 mM", "value": 39.5, "unit": "nM"}, {"measurement": "apparent KD of MS2 coat protein", "setting": "input ligand: none", "value": 42.3, "unit": "nM"}, {"measurement": "apparent KD of MS2 coat protein", "setting": "[1]", "value": 78.8, "unit": "nM"}, {"measurement": "apparent KD of MS2 coat protein", "setting": "[3]", "value": 409, "unit": "nM"}, {"measurement": "apparent KD of MS2 coat protein", "setting": "[2]", "value": 31.6, "unit": "nM"}]}, {"sequence": "AGGACCAGGAACAUGGGUGAACUGGUCCAACGAGGACCGGUACGGCCGCCACUCGAAUAAACAUGAGGAUCACCCAUGUAAUAAU [T''-M-T'-T-MS2]", "values": [{"measurement": "apparent KD of MS2 coat protein", "setting": "input ligand: arginine 13.2 mM", "value": 83.3, "unit": "nM"}, {"measurement": "apparent KD of MS2 coat protein", "setting": "input ligand: none", "value": 327, "unit": "nM"}, {"measurement": "apparent KD of MS2 coat protein", "setting": "[1]", "value": 296, "unit": "nM"}, {"measurement": "apparent KD of MS2 coat protein", "setting": "[3]", "value": 442, "unit": "nM"}, {"measurement": "apparent KD of MS2 coat protein", "setting": "[2]", "value": 210, "unit": "nM"}]}, {"sequence": "AGGACGGUCGGAAGGAGCGGUACAUGAGGAUCACCCAUGUACCUCUGGGCAUCCGUAGUGUGCCAGGUAGGUCGCCGAUUGCGGG [Lareerra]", "values": [{"measurement": "apparent KD of MS2 coat protein", "setting": "input ligand: arginine 13.2 mM", "value": 15.7, "unit": "nM"}, {"measurement": "apparent KD of MS2 coat protein", "setting": "input ligand: none", "value": 12, "unit": "nM"}, {"measurement": "apparent KD of MS2 coat protein", "setting": "[1]", "value": 19.5, "unit": "nM"}, {"measurement": "apparent KD of MS2 coat protein", "setting": "[3]", "value": 16.5, "unit": "nM"}, {"measurement": "apparent KD of MS2 coat protein", "setting": "[2]", "value": 11.8, "unit": "nM"}]}, {"sequence": "AGUAAUCUAACAGAUACCAGACGGUAUAUAACAUGAGGAUCACCCAUGUCUUGGGUGUACGUCCCUUGGCAGCUGAAAAUGAUAA [JR_SSTheophyB_Sub001]", "values": [{"measurement": "apparent KD of MS2 coat protein", "setting": "input ligand: arginine 13.2 mM", "value": 157, "unit": "nM"}, {"measurement": "apparent KD of MS2 coat protein", "setting": "[1]", "value": 551, "unit": "nM"}, {"measurement": "apparent KD of MS2 coat protein", "setting": "[2]", "value": 756, "unit": "nM"}]}, {"sequence": "AGUACAUGAGGAUCACCCAUGUACCAUGAUACCAGACAUGAAAAUGUCCCUUGGCAGCGUGGGUGAGGCAUCCGAAAGGAUGCCC [#05 SameState-TheophyllineA]", "values": [{"measurement": "apparent KD of MS2 coat protein", "setting": "input ligand: arginine 13.2 mM", "value": 51.1, "unit": "nM"}, {"measurement": "apparent KD of MS2 coat protein", "setting": "input ligand: none", "value": 223, "unit": "nM"}, {"measurement": "apparent KD of MS2 coat protein", "setting": "[1]", "value": 185, "unit": "nM"}, {"measurement": "apparent KD of MS2 coat protein", "setting": "[3]", "value": 30.5, "unit": "nM"}, {"measurement": "apparent KD of MS2 coat protein", "setting": "[2]", "value": 77.7, "unit": "nM"}]}, {"sequence": "AGUACUCGAACGGAUACCAGCCGGACAUGAGGAUCACCCAUGUCCUACCUCUGUUCGGUUGGCCCUUGGCAGCCGUUCGUGUACA [Omei Theo B SS A v7]", "values": [{"measurement": "apparent KD of MS2 coat protein", "setting": "input ligand: arginine 13.2 mM", "value": 41.4, "unit": "nM"}, {"measurement": "apparent KD of MS2 coat protein", "setting": "[1]", "value": 580, "unit": "nM"}, {"measurement": "apparent KD of MS2 coat protein", "setting": "[2]", "value": 128, "unit": "nM"}]}, {"sequence": "AGUCGAAACUGAAGGAGCGAGAUGACAACAUUGGGUCUAACAUGAGGAUCACCCAUGUAAUCUCAGGUAGGUCGCAGUAACAAAA [Exclusion Arginine B GF 16]", "values": [{"measurement": "apparent KD of MS2 coat protein", "setting": "input ligand: arginine 13.2 mM", "value": 172, "unit": "nM"}, {"measurement": "apparent KD of MS2 coat protein", "setting": "input ligand: none", "value": 78.7, "unit": "nM"}, {"measurement": "apparent KD of MS2 coat protein", "setting": "[1]", "value": 165, "unit": "nM"}, {"measurement": "apparent KD of MS2 coat protein", "setting": "[3]", "value": 104, "unit": "nM"}, {"measurement": "apparent KD of MS2 coat protein", "setting": "[2]", "value": 93.1, "unit": "nM"}]}, {"sequence": "AGUCUGGACUCGGCCGCCACUCGUGAUGCUUUGGCACAUGAGGAUCACCCAUGUGGUCGGCCUUAGAGGACCGGGAGUACCAGCU [Zaraoned]", "values": [{"measurement": "apparent KD of MS2 coat protein", "setting": "input ligand: arginine 13.2 mM", "value": 38.6, "unit": "nM"}, {"measurement": "apparent KD of MS2 coat protein", "setting": "[1]", "value": 65.9, "unit": "nM"}, {"measurement": "apparent KD of MS2 coat protein", "setting": "[3]", "value": 61.3, "unit": "nM"}]}, {"sequence": "AGUCUUAAAGGAAGGAGCGCAAUCAUAACAUGAGGAUCACCCAUGUCGAGGUGAGGGUCAUUGCAGGUAGGUCGCCUUACUAAGA [Same State - Arginine B (Freestyle 7)]", "values": [{"measurement": "apparent KD of MS2 coat protein", "setting": "input ligand: arginine 13.2 mM", "value": 128, "unit": "nM"}, {"measurement": "apparent KD of MS2 coat protein", "setting": "input ligand: none", "value": 79.6, "unit": "nM"}, {"measurement": "apparent KD of MS2 coat protein", "setting": "[1]", "value": 88.7, "unit": "nM"}, {"measurement": "apparent KD of MS2 coat protein", "setting": "[3]", "value": 134, "unit": "nM"}, {"measurement": "apparent KD of MS2 coat protein", "setting": "[2]", "value": 78.4, "unit": "nM"}]}, {"sequence": "AGUCUUAUAGGAAGGAGCGCAAUCAUAACAUGAGGAUCACCCAUGUCGAGGUGAGGGUCAUUGCAGGUAGGUCGCCUAACUAAGA [Same State - Arginine B (Freestyle 8)]", "values": [{"measurement": "apparent KD of MS2 coat protein", "setting": "input ligand: arginine 13.2 mM", "value": 126, "unit": "nM"}, {"measurement": "apparent KD of MS2 coat protein", "setting": "input ligand: none", "value": 281, "unit": "nM"}, {"measurement": "apparent KD of MS2 coat protein", "setting": "[1]", "value": 121, "unit": "nM"}, {"measurement": "apparent KD of MS2 coat protein", "setting": "[3]", "value": 344, "unit": "nM"}, {"measurement": "apparent KD of MS2 coat protein", "setting": "[2]", "value": 96.5, "unit": "nM"}]}, {"sequence": "AGUGCUACGUGUAAUCAAAGAGAACCAGAUACCAGAUUAGCAUACAUCCCUUGGCAGCUGCAUACAUGAGGAUCACCCAUGUCAG [theeternabot_exclusion_MS2_Theo_A_31]", "values": [{"measurement": "apparent KD of MS2 coat protein", "setting": "input ligand: arginine 13.2 mM", "value": 26.5, "unit": "nM"}, {"measurement": "apparent KD of MS2 coat protein", "setting": "[1]", "value": 38.4, "unit": "nM"}, {"measurement": "apparent KD of MS2 coat protein", "setting": "[2]", "value": 31.8, "unit": "nM"}]}, {"sequence": "AGUGUUGUAACUGAUACCAGACCUUUGCUUAUACAUGAGGAUCACCCAUGUAAAAUGGCGGUCCCUUGGCAGCAGAGAAGACGCA [#10 Same State - Theophylline B]", "values": [{"measurement": "apparent KD of MS2 coat protein", "setting": "input ligand: arginine 13.2 mM", "value": 41.5, "unit": "nM"}, {"measurement": "apparent KD of MS2 coat protein", "setting": "[1]", "value": 27, "unit": "nM"}, {"measurement": "apparent KD of MS2 coat protein", "setting": "[2]", "value": 41.9, "unit": "nM"}]}, {"sequence": "AGUUAAAUAUGUUAAUAACUAUUUACUGAAGGAGCGUGUUUUGACACAGGUAGGUCGCAGUGACAUGAGGAUCACCCAUGUCGUA [#08 Same State - Arginine A]", "values": [{"measurement": "apparent KD of MS2 coat protein", "setting": "input ligand: arginine 13.2 mM", "value": 20.3, "unit": "nM"}, {"measurement": "apparent KD of MS2 coat protein", "setting": "input ligand: none", "value": 17.4, "unit": "nM"}, {"measurement": "apparent KD of MS2 coat protein", "setting": "[1]", "value": 21.8, "unit": "nM"}, {"measurement": "apparent KD of MS2 coat protein", "setting": "[3]", "value": 21.6, "unit": "nM"}, {"measurement": "apparent KD of MS2 coat protein", "setting": "[2]", "value": 19.2, "unit": "nM"}]}, {"sequence": "AGUUAUUUCCGAAGGAGCGUUAUACAUGAGGAUCACCCAUGUACAUGAGGUUCAACAUGAAAACAGGUAGGUCGCGGAUUUUGUC [Exclusion Arginine B4]", "values": [{"measurement": "apparent KD of MS2 coat protein", "setting": "input ligand: arginine 13.2 mM", "value": 15.6, "unit": "nM"}, {"measurement": "apparent KD of MS2 coat protein", "setting": "input ligand: none", "value": 19.2, "unit": "nM"}, {"measurement": "apparent KD of MS2 coat protein", "setting": "[1]", "value": 27.6, "unit": "nM"}, {"measurement": "apparent KD of MS2 coat protein", "setting": "[3]", "value": 29, "unit": "nM"}, {"measurement": "apparent KD of MS2 coat protein", "setting": "[2]", "value": 14.2, "unit": "nM"}]}]}
